Assay results taken from patent US20140056902A1 (Kyowa Kirin, published 2014).
Substitutions are numbered along the chain they refer to.

T1: human mature dimer BMP9 recombinant protein (manufactured by R&D systems, Cat#3209-BP) (human, UniProt Q9UK05 320-429)
T1 construct: Bought protein; also called human BMP9; human BMP9 recombinant protein (manufactured by R&D systems)
T1 sequence: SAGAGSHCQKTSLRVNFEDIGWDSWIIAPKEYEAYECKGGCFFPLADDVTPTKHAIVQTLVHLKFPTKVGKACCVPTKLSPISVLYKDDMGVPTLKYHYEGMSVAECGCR

B1: 10D5-2-3 chimeric antibody (c10D5-2-3 antibody) (antibody, V domains shown)
VH: EVKLEESRGGLVQPGGSMKLSCVASGFTFSNYWMNWVRQSPEKGLEWVAHIRLKSDNYATHYAESVRGRFTISRDDSKSSVFLQMNNLRAEDTGIYYCTGGSNYVFAFWGQGTLVTVSA
VL: not shown
notes: Human chimeric antibody; The V regions were cloned into the humanized antibody expression vector pKANTEX93
B2: 10D5-2-3 antibody-humanized antibody HV3LV2 (antibody, V domains shown)
VH: EVQLVESGGGLVQPGGSLRLSCAASGFTFSNYWMNWVRQAPGKGLEWVAHIRLKSDNYATHYAESVRGRFTISRDDSKNSLYLQMNSLKTEDTAVYYCTGGSNYVFAFWGQGTLVTVSS
VL: DIVMTQSPDSLAVSLGERATINCRASESVDNYGISFMNWFQQKPGQPPKLLIYAASNQGSGVPDRFSGSGSGTDFTLTISSLQAEDVAVYFCQQSKEVPWTFGQGTKLEIK
notes: Expressed from pKANTEX93
B3: 10D5-2-3 antibody-humanized antibody HV4bLV3 (antibody, V domains shown)
VH: B2 VH with V95I
VL: B2 VL with S81P
notes: Expressed from pKANTEX93
B4: 10D5-2-3 antibody-humanized antibody HV9LV3 (antibody, V domains shown)
VH: B2 VH with G8R, L18M, N79S, L81V, A94G, V95I
VL: B2 VL with S81P
notes: Expressed from pKANTEX93
B5: 10D5-2-3 antibody-humanized antibody HV7aLV2 (antibody, V domains shown)
VH: B2 VH with G8R, L18M, N79S, A94G
VL: B2 VL
notes: Expressed from pKANTEX93
B6: 10D5-2-3 antibody-humanized antibody HV0LV3 (antibody, V domains shown)
VH: B2 VH with A49G, T99A, G100R
VL: B2 VL with S81P
notes: Expressed from pKANTEX93
B7: 10D5-2-3 antibody-humanized antibody HV3LV3 (antibody, V domains shown)
VH: B2 VH
VL: B2 VL with S81P
notes: Expressed from pKANTEX93
B8: 10D5-2-3 antibody-humanized antibody HV4bLV6 (antibody, V domains shown)
VH: B2 VH with V95I
VL: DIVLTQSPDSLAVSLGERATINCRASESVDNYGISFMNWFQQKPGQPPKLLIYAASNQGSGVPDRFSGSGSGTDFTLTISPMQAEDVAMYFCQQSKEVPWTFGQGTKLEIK
notes: Expressed from pKANTEX93
B9: 10D5-2-3 antibody-humanized antibody HV9LV0 (antibody, V domains shown)
VH: B2 VH with G8R, L18M, N79S, L81V, A94G, V95I
VL: B2 VL with F40Y, F91Y
notes: Expressed from pKANTEX93
B10: 10D5-2-3 antibody-humanized antibody HV9LV2 (antibody, V domains shown)
VH: B2 VH with G8R, L18M, N79S, L81V, A94G, V95I
VL: B2 VL
notes: Expressed from pKANTEX93
B11: 10D5-2-3 antibody-humanized antibody HV4aLV0 (antibody, V domains shown)
VH: B2 VH with G8R, L18M, A49G, N79S, T99A
VL: B2 VL with F40Y, F91Y
notes: Expressed from pKANTEX93
B12: 10D5-2-3 antibody-humanized antibody HV7aLV0 (antibody, V domains shown)
VH: B2 VH with G8R, L18M, N79S, A94G
VL: B2 VL with F40Y, F91Y
notes: Expressed from pKANTEX93
B13: 10D5-2-3 antibody-humanized antibody HV9LV6 (antibody, V domains shown)
VH: B2 VH with G8R, L18M, N79S, L81V, A94G, V95I
VL: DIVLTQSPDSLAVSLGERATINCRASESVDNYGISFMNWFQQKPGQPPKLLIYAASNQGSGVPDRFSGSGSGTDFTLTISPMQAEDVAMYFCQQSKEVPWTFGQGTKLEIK
notes: Expressed from pKANTEX93
B14: 10D5-2-3 antibody-humanized antibody HV7bLV2 (antibody, V domains shown)
VH: B2 VH with G8R, L18M, L81V, A94G
VL: B2 VL
notes: Expressed from pKANTEX93
B15: 10D5-2-3 antibody-humanized antibody HV4bLV2 (antibody, V domains shown)
VH: B2 VH with V95I
VL: B2 VL
notes: Expressed from pKANTEX93
B16: 10D5-2-3 antibody-humanized antibody HV3LV6 (antibody, V domains shown)
VH: B2 VH
VL: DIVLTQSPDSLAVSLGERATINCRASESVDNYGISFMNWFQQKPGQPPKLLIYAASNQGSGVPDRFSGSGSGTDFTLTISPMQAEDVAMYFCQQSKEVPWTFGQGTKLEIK
notes: Expressed from pKANTEX93
B17: 10D5-2-3 antibody-humanized antibody HV9LV4 (antibody, V domains shown)
VH: B2 VH with G8R, L18M, N79S, L81V, A94G, V95I
VL: B2 VL with M4L, F40Y, S81P, L82M, V89M, F91Y
notes: Expressed from pKANTEX93
B18: 10D5-2-3 antibody-humanized antibody HV0LV4 (antibody, V domains shown)
VH: B2 VH with A49G, T99A, G100R
VL: B2 VL with M4L, F40Y, S81P, L82M, V89M, F91Y
notes: Expressed from pKANTEX93
B19: 10D5-2-3 antibody-humanized antibody HV3LV0 (antibody, V domains shown)
VH: B2 VH
VL: B2 VL with F40Y, F91Y
notes: Expressed from pKANTEX93
B20: 10D5-2-3 antibody-humanized antibody HV4bLV0 (antibody, V domains shown)
VH: B2 VH with V95I
VL: B2 VL with F40Y, F91Y
notes: Expressed from pKANTEX93
B21: 3B7-3-3 antibody (antibody, mouse IgG1, V domains shown)
VH: EVQLQQSRPELVKPGASVKISCKASDYSFTDYYMNWVKQSPDKSLEWIGEISPSSGGTTYNQKFKAKATLTVDKSSSTAYMQLKSLTSEDSAVYYCATRGAFYFDYWGQGTALTVSS
VL: QIVLTQSPALMSAFPGEKVTMTCSASSSVSYMYWYQQKPRSSPKPWIYLTSNLASGVPTRFSGSGSGTSYSLTISSMEAEDAATYFCQQWSSNPRTFGGGTKLEIKR
notes: Mouse monoclonal from a BMP9 KO mouse hybridoma; mouse IgG1 heavy chain, kappa light chain
B22: human mature dimer BMP10 recombinant protein (manufactured by R&D systems, Cat#2926-BP) (ligand)
chain: NAKGNYCKRTPLYIDFKEIGWDSWIIAPPGYEAYECRGVCNYPLAEHLTPTKHAIIQALVHLKNSQKASKACCVPTKLEPISILYLDKGVVTYKFKYEGMAVSECGCR

Tests used:
[1] = target: T1, human mature dimer BMP9 recombinant …; assay: SPR (Biacore T100), antibody captured on anti-human IgG, human BMP9 (R&D 3209-BP) as analyte, 5 concentrations from 1 nM
Experimental: (§1) For the purpose of comparing binding activity to human BMP9 between c10D5-2-3 antibody and 22 types of 10D5-2-3 antibody-humanized antibodies obtained in Example 22-7, binding activity to human BMP9 recombinant protein (manufactured by R&D systems) was measured by surface plasmon resonance (SPR) using a BiacoreT100 instrument (manufactured by GE Healthcare bioscience).
(§2) Anti-human IgG antibody was immobilized onto a CM5 sensor chip (manufactured by GE Healthcare bioscience) using a Human Antibody Capture Kit (manufactured by GE Healthcare bioscience) in accordance with the accompanying protocol. 0.4 μg/mL of c10D5-2-3 antibody or each humanized antibody was applied to the flow cell onto which anti-human IgG antibody was immobilized, at a flow rate of 10 μL/min for 2 minutes.
(§3) Subsequently, human BMP9 recombinant protein (manufactured by R&D systems, Cat#3209-BP) was subjected to 2-fold serial dilution starting from […] to give 5 concentrations, and applied at a flow rate of 10 μL/min, and association was monitored over 3 minutes and dissociation over 3 minutes at a flow of 10 μL/min. The sensorgram thus obtained was analyzed by BiaEvaluation Software (manufactured by GE Healthcare bioscience) to calculate the rate constant of each antibody.

[2] = target: T1, human mature dimer BMP9 recombinant …; assay: SPR (Biacore T100), antibody captured on anti-human IgG, human BMP9 as analyte
Experimental: as §1, §2, §3

[3] = target: B22; assay: ELISA, immobilized antigen (100 ng/mL coat), biotin-labeled antibody at 100 ng/mL, absorbance 450-570 nm
Experimental: To examine specificity of the obtained antibodies to human BMP9, their binding ability to human BMP9 and human BMP10 having the highest homology to human BMP9 was tested by comparison. First, 100 ng/mL of human mature dimer BMP9 recombinant protein (manufactured by R&D systems, Cat#3209-BP), or human mature dimer BMP10 recombinant protein (manufactured by R&D systems, Cat#2926-BP) prepared in 50 mmol/L NaHCO₃ buffer (manufactured by Wako, Cat#191-01305) was added to a 96-well plate for ELISA (F96 MAXISORP NUNC-IMMUNO PLATE, manufactured by Thermo Fisher Scientific, Cat#442404) at an amount of 50 μL/well, and left at 4° C. overnight for adsorption.
Subsequently, 6D10-1-1 antibody, 10D5-2-3 antibody, 3B7-3-3 antibody, R&D antibody, or anti-BMP10 antibody (manufactured by R&D, Cat#MAB2926) that was labeled with biotin using a Biotin Labeling Kit-NH2 (manufactured by COSMO BIO, Cat#LK03) was prepared at a concentration of 100 ng/mL using 10% Super Block in TBST which was prepared by mixing SuperBlock and TBST at a ratio of 1:9. 50 μL/well thereof was aliquoted as a primary antibody, and left at room temperature for 1 hour.
The plate was washed with TBST five times, and 50 μL/well of the TMB substrate reagent (TMB+ Substrate-Chromogen, manufactured by Dako, Cat#S1599) was added for color-development. When proper color was developed, 50 μL/well of the 1 N sulfuric acid solution (manufactured by Wako, Cat#192-04755) was added, and absorbance (450 nm-570 nm) at a sample wavelength of 450 nm and at a reference wavelength of 570 nm was determined using a plate reader (manufactured by Spectra Max, Molecular Devices).

[4] = target: T2, full-length human ALK1 expressed on the reporter cell line ALK1/p(GCCG)12-Luc/HepG2(38.5) (human, UniProt P37023 22-503); assay: cell-based or functional assay
[5] = target: T2, full-length human ALK1 expressed on the …; assay: cell-based or functional assay; remark: listed apart in the source

T2 sequence (P37023 22-503 limits assumed): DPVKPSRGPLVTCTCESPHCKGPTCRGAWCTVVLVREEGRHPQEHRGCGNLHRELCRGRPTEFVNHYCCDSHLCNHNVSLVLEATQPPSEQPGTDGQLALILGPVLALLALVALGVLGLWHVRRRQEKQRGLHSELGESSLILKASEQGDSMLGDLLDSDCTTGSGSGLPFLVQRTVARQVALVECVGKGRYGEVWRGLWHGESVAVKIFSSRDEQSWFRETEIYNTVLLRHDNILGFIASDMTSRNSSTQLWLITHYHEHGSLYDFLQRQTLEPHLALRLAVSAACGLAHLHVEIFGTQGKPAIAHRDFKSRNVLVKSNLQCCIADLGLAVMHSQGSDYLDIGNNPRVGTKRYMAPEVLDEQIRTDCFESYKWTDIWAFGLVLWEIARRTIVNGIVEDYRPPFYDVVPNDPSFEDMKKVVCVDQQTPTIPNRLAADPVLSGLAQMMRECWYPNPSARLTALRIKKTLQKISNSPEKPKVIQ

Kd [1] [pM]	koff [1] [s⁻¹]	kon [1] [M⁻¹ s⁻¹]	Binder	further results
4.52	0.00024	5.32e+07	B1	
11.6	0.000596	5.12e+07	B2	
10.1	0.000556	5.5e+07	B3	
3.52	0.000279	7.91e+07	B4	
9.57	0.000477	4.98e+07	B5	
			B6	binding result [2]: no binding (tested: human BMP9 up to 1 nM)
9.49	0.000516	5.43e+07	B7	
11.9	0.000531	4.46e+07	B8	
6.45	0.000859	1.33e+08	B9	
3.89	0.000347	8.91e+07	B10	
9.24	0.00145	1.57e+08	B11	
9.69	0.00142	1.47e+08	B12	
5.13	0.000325	6.34e+07	B13	
4.91	0.000307	6.25e+07	B14	
10.9	0.000588	5.39e+07	B15	
11.9	0.000555	4.67e+07	B16	
6.38	0.000739	1.16e+08	B17	
			B18	binding result [2]: no binding (tested: human BMP9 up to 1 nM)
11.4	0.00172	1.51e+08	B19	
11.4	0.00164	1.44e+08	B20	
			B21	binding result [3]: no binding (tested: 100 ng/mL)
			B22	EC50 (read off the curve); luciferase activity (RLU) of human ALK1 reporter cells, with 3 ug/mL 10D5-2-3 antibody alone (filled square) [4]: ~0.3 ng/mL; EC50 (read off the curve); luciferase activity (RLU) of human ALK1 reporter cells, with the complex of 3 ug/mL 10D5-2-3 antibody and 2 ng/mL human BMP9 (open triangle) [4]: ~0.3 ng/mL; EC50 (read off the curve); luciferase activity (RLU) of human ALK1 reporter cells, with the complex of 3 ug/mL 10D5-2-3 antibody and 10 ng/mL human BMP9 (open circle) [4]: ~0.2 ng/mL; EC50 (read off the curve); luciferase activity (RLU) of human ALK1 reporter cells, with 3 ug/mL 6D10-1-1 antibody alone (filled square) [5]: ~0.4 ng/mL
